In publication doi:10.1101/2020.05.22.111047:

Target: Carbonic anhydrase 1 (CA1) (human, UniProt P00915 2-261)
Test: G-FET

Carbonic anhydrase 1 (CA1), sequence (P00915 2-261): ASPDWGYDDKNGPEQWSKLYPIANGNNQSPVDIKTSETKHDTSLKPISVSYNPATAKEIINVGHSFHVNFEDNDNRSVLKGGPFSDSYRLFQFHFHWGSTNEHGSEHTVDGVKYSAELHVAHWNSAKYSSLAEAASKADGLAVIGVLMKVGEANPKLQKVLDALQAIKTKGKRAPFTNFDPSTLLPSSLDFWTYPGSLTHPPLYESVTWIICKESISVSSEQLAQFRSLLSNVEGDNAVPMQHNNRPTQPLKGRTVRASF

B1: CA1 RNA aptamer (ssRNA)
RNA: CAGGCGCAGUAUCACUUUGUGAUCAUUAGUGGGUUCCGUG
modifications: 5' amine, coupled to graphene via PBASE linker
Kd: 2.27 ng/mL
